T1: myc-tagged UFD-2 (^mycUFD-2), Q09349
T1 chain: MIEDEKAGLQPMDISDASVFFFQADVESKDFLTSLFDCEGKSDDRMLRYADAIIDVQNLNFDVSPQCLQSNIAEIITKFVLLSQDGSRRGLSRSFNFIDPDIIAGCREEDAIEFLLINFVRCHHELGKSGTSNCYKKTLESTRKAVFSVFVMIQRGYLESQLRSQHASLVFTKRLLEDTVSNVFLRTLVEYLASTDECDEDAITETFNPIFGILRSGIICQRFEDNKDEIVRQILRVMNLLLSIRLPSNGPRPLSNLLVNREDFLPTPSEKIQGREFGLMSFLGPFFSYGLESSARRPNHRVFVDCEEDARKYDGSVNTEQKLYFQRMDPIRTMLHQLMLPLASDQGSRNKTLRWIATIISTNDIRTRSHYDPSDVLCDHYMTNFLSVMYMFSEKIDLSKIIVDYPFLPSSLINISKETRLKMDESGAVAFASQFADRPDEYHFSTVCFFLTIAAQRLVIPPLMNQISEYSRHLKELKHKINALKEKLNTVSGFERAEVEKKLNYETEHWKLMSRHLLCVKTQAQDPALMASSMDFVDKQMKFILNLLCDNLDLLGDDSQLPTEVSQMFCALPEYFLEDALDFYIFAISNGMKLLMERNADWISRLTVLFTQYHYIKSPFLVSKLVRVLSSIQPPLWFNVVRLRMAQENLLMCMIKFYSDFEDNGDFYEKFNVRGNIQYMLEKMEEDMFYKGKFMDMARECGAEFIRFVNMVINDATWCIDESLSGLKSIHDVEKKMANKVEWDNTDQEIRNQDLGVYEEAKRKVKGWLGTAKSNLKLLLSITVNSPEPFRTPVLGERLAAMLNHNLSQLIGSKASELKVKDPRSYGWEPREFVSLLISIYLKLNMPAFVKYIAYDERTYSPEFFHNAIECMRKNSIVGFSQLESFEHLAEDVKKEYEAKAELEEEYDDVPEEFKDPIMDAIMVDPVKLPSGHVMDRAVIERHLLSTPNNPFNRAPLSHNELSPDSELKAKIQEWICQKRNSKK

B1: myc-tagged CHN-1 (^mycCHN-1) (protein)
chain: MSSGAEQHNTNGKKCYMNKRYDDAVDHYSKAIKVNPLPKYYQNRAMCYFQLNNLKMTEEDCKRALELSPNEVKPLYFLGNVFLQSKKYSEAISCLSKALYHNAVITNAPDIENALKRARHQKYEEEESKRIVQDVEFHTYLESLIEKDRQENSENPEELQRADMAKKRLTELTLATQEKRQNREVPEMLCGKITLELMKEPVIVPSGITYDREEIVQHLRRIGHFDPVTRKPLTENEIIPNYALKEVIEKFLDDNPWAKYEPGGMV
B2: myc-tagged UFD-2 (^mycUFD-2) (protein)
chain: T1 chain

Key:
[1] = biological target: FLAG-tagged UNC-45 (UNC-45^FLAG)
[2] = biological target: T1, myc-tagged UFD-2 (^mycUFD-2), Q09349

Protein | in vitro ubiquitylation of UNC-45 (with E1 and the E2 LET-70), Western blot [1] | in vitro multiubiquitylation of UNC-45 with both enzymes present, Western blot [2]
B1 | the addition of full-length CHN-1 proceeds to efficient ubiquitin conjugation. However, the majority of conjugates appeared to contain only one to three ubiquitin moieties | these enzymes together dramatically stimulated the multiubiquitylation reaction, yielding UNC-45 conjugates with significantly longer chains than those conjugated by CHN-1 or UFD-2 alone
B2 | addition of one to three ubiquitins to the substrate protein UNC-45 | 

Reference: US20090053196
